# B1: clone No. 3-312: prey protein: C-terminal 89 amino acids (amino acids 995-1083 of SEQ ID NO: 4) of the human c-Met β chain (protein, listed as Homo sapiens)
# chain: LLQPEYCPDPLYEVMLKCWHPKAEMRPSFSELVSRISAIFSTFIGEHYVHVNATYVNVKCVAPYPSLLSSEDNADDEVDTRPASFWETS
# B2: clone No. 2-22: prey protein: C-terminal 93 amino acids (amino acids 411-503 of SEQ ID NO: 10) of human MERMUC (protein, listed as Homo sapiens)
# chain: SSRGTNSTLAKITTSAKTTMKPPTATPTTARTRPTTDVSAGENGGFLLLRLSVASPEDLTDPRVAERLMQQLHRELHAHAPHFQVSLLRVRRG
# B3: clone No. 3-309: prey protein: C-terminal 91 amino acids (amino acids 993-1083 of SEQ ID NO: 4) of the human c-Met β chain (protein, listed as Homo sapiens)
# chain: RRLLQPEYCPDPLYEVMLKCWHPKAEMRPSFSELVSRISAIFSTFIGEHYVHVNATYVNVKCVAPYPSLLSSEDNADDEVDTRPASFWETS
# B4: prey DNA B: c-Met prey protein, amino acids 1013-1083 of SEQ ID NO: 4 (protein, listed as Homo sapiens)
# chain: WHPKAEMRPSFSELVSRISAIFSTFIGEHYVHVNATYVNVKCVAPYPSLLSSEDNADDEVDTRPASFWETS
# B5: prey DNA F: c-Met prey protein, amino acids 993-1053 of SEQ ID NO: 4 (protein, listed as Homo sapiens)
# chain: RRLLQPEYCPDPLYEVMLKCWHPKAEMRPSFSELVSRISAIFSTFIGEHYVHVNATYVNVK
# B6: prey DNA A: c-Met prey protein, amino acids 1003-1083 of SEQ ID NO: 4 (protein, listed as Homo sapiens)
# chain: DPLYEVMLKCWHPKAEMRPSFSELVSRISAIFSTFIGEHYVHVNATYVNVKCVAPYPSLLSSEDNADDEVDTRPASFWETS
# B7: prey DNA C: c-Met prey protein, amino acids 1023-1083 of SEQ ID NO: 4 (protein, listed as Homo sapiens)
# chain: FSELVSRISAIFSTFIGEHYVHVNATYVNVKCVAPYPSLLSSEDNADDEVDTRPASFWETS
# B8: prey DNA E: c-Met prey protein, amino acids 993-1063 of SEQ ID NO: 4 (protein, listed as Homo sapiens)
# chain: RRLLQPEYCPDPLYEVMLKCWHPKAEMRPSFSELVSRISAIFSTFIGEHYVHVNATYVNVKCVAPYPSLLS
# B9: prey DNA D: c-Met prey protein, amino acids 993-1073 of SEQ ID NO: 4 (protein, listed as Homo sapiens)
# chain: RRLLQPEYCPDPLYEVMLKCWHPKAEMRPSFSELVSRISAIFSTFIGEHYVHVNATYVNVKCVAPYPSLLSSEDNADDEVD
# Tested on: C-terminal region of human MERMUC (bait-2, bait-3)
# Assay: Yeast two hybrid screening of human kidney cDNA library with MERMUC baits
# Assay type: binding
# Settings: bait-2 = 123 amino acid portion of the C-terminus of human MERMUC
# Experimental: Specifically, yeast two hybrid system (Proc. Natl. Acad. Sci. USA., 1991, Vol.88, p.9578-9582) was performed to screen a human kidney cDNA library using cDNA corresponding to the C-terminal region of the human MERMUC as the bait (that is, fishing bait).
# Two kinds of bait (bait-2 and bait-3) were designed using each of Ex.-2 and Ex.-3 as the core. Bait-2 corresponds to a 123 amino acid portion of the C-terminus (bait-2) and bait-3 corresponds to the 65 C-terminal amino acids (bait-3).
# Each bait vector was obtained by inserting each DNA fragment obtained by digesting each of the PCR products with the restriction enzymes EcoRI and SalI into the EcoRI/SalI site of pGBKT7 vector (leucine biosynthesis gene as a marker; CLONTECH). In yeast, the gene within the vector is produced as a fusion protein ([fusion protein A]) with the DNA binding region (GAL4-DB) of the yeast transcription factor GAL4.
# On the other hand, each cDNA of the human kidney derived cDNA library (CLONTECH) that is used for the screening with the bait vector is inserted in pADK vector (tryptophan biosynthesis gene as a marker). Therefore, proteins produced through the expression of each of these cDNAs in yeast are produced as a fusion protein ([fusion protein B]) with the GAL4 transcriptional activation region (GAL4-AD).
# AH109 strain (leucine, tryptophan, histidine and adenine auxotrophic yeast; CLONTECH) was used as the yeast host. This yeast strain contains 3 types of genes (histidine biosynthesis gene, adenine biosynthesis gene and β-galactosidase gene) under the control of the GAL promoter on the chromosome.
# The function as a transcription factor is recovered through the fusion of GAL4-DB and GAL4-AD by the binding of the bait protein (the fusion protein A) with the prey protein (the fusion protein B).
# Each bait vector was introduced into yeast AH109 strain with the cDNA library plasmid mentioned above (50,000 clones per pool) by the polyethylene glycol/lithium acetate method for screening (J. Bacteriol., 1983, Vol. 153, p.163-16883; Curr. Genet., 1989, Vol. 16, p. 339-346; Nucleic Acids Res., 1991, Vol. 19, p. 5791; Nucleic Acids Res., 1992, Vol. 20, p.1425).
# The marker for the first selection of yeast with the desired transformation in the present screening was acquired histidine non-requirement due to the expression of the histidine biosynthesis gene. Therefore, after introducing the plasmid, yeast was cultured for 5 days at 30° C. in yeast minimum medium that lacks leucine, tryptophan and histidine (SD/-Leu,-Trp,-His) used for selecting transformants.
# Transformed yeast that grew on the plate upon cultivation were picked with toothpick and seeded on 3 kinds of plates described below, and then cultured for 5 days at 30° C. for a second selection of the desired clones: • <A> plate containing yeast minimum medium lacking leucine, tryptophan and histidine (SD/-Leu, -Trp, -His); • <B> plate containing yeast minimum medium lacking leucine, tryptophan and adenine (SD/-Leu, -Trp, -Ade); and • <C> plate containing yeast minimum medium lacking leucine and tryptophan, and supplemented with α-X-gal (20 ug/ml) (SD/-Leu, -Trp, +X-gal).
# Positive clones were identified as colonies growing on both of the above-mentioned <A> and <B> plates (acquirement of histidine and adenine non-requirement) and showing blue color on plate <C> (α-X-gal addition) (expression of β-galactosidase activity). Four prey cDNA clones (clones No. 3-309, No. 3-312, No. 2-22 and No. 2-211) were selected as positive.
row,Molecule,binding ability to the protein derived from bait-2
1,B1,had binding ability
2,B2,had binding ability
3,B3,had binding ability

# Same assay, conditions: bait-3 = 65 C-terminal amino acids of human MERMUC
row,Molecule,binding ability to the protein derived from bait-3
1,B1,had binding ability
2,B3,had binding ability

# Biological target: T1, MERMUC bait protein (Homo sapiens, UniProt Q8N307)
# T1 construct: Bait-2 corresponds to a 123 amino acid portion of the C-terminus (bait-2); expressed in transfected cells; host or cells: yeast AH109 strain (pGBKT7 bait vector)
# T1 sequence (Q8N307 587-709): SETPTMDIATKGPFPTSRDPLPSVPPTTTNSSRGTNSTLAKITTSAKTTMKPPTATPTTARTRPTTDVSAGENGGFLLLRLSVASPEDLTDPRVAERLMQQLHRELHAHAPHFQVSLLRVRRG
# Assay: Yeast two-hybrid binding of c-Met prey deletion proteins to MERMUC bait-2
# Settings: yeast growth on SD/-Leu,-Trp,-His and SD/-Leu,-Trp,-Ade; human MERMUC bait-2
# Experimental: The present invention was performed using the reported yeast two-hybrid system (Proc. Natl. Acad. Sci. USA., 1991, Vol. 88, p.9578-9582) based on conventional method and the experimental protocols appended to the reagents.
# PCR was performed using DNA (clone No. 3-309) corresponding to the 91 amino acids (amino acids 993-1083 of SEQ ID NO: 4) of the C-terminal region of the human HGF receptor c-Met β chain that was identified in the previous Example to have the binding ability to the cytoplasmic region of human MERMUC as a template. Seven DNA fragments shown below corresponding to the C-terminal region of the c-Met β chain having various lengths, wherein various length of N-terminal or C-terminal amino acids are deleted from said 91 amino acids were prepared via a conventional method by PCR: • A. DNA corresponding to a region (amino acids 1003-1083 of SEQ ID NO: 4) that lacks the 10 N-terminal amino acids of the 91 amino acids of the C-terminal human c-Met β chain; • B. DNA corresponding to a region (amino acids 1013-1083 of SEQ ID NO: 4) that lacks the 20 N-terminal amino acids of the 91 amino acids of the C-terminal human c-Met β chain; • C. DNA corresponding to a region (amino acids 1023-1083 of SEQ ID NO: 4) that lacks the 30 N-terminal amino acids of the 91 amino acids of the C-terminal human c-Met β chain; • D. DNA corresponding to a region (amino acids 993-1073 of SEQ ID NO: 4) that lacks the C-terminal 10 amino acids of the 91 amino acids of the C-terminal human c-Met β chain; • E. DNA corresponding to a region (amino acids 993-1063 of SEQ ID NO: 4) that lacks the 20 C-terminal amino acids of the 91 amino acids of the C-terminal human c-Met β chain; • F. DNA corresponding to a region (amino acids 993-1053 of SEQ ID NO: 4) that lacks the 30 C-terminal amino acids of the 91 amino acids of the C-terminal human c-Met β chain; and • G. DNA corresponding to a region (amino acids 993-1043 of SEQ ID NO: 4) that lacks the 40 C-terminal amino acids of the 91 amino acids of the C-terminal human c-Met β chain.
# Furthermore, the forward and reverse primers used for the PCR were designed to contain an EcoRI site and SalI site at their 5′ end, respectively. Each of the DNA fragments prepared by PCR were inserted into the EcoRI/SalI site of pADKT7 vector (a vector for a prey protein that contains a tryptophan biosynthesis gene as a marker; CLONTECH) in frame with GAL4-AD to prepare prey vectors wherein each of the 7 DNAs described above is inserted.
# Each of the 7 prey vectors was cointroduced into yeast AH109 strain with the human MERMUC bait-2 vector prepared in Example 1.
# The binding activity between the c-Met prey proteins derived from the 7 DNA fragments and the MERMUC bait protein was analyzed by the yeast two-hybrid system described in Example 1. Specifically, the binding activity was evaluated based on the growth of yeast transformed with the vector on 2 kinds of yeast minimum media, i.e., (1) SD/-Leu, -Trp, -His media and (2) SD/-Leu, -Trp, -Ade media.
row,Molecule,binding activity with MERMUC bait protein
1,B4,+ (bound) (+ (bound))
2,B5,+ (bound) (+ (bound))
3,B6,+ (bound) (+ (bound))
4,B7,− (no binding)
5,B8,+ (bound) (+ (bound))
6,B9,+ (bound) (+ (bound))
